The source of these data is patent US20190085095A1 (SHIRE HUMAN GENETIC THERAPIES, published 2019).

The Kd is the constant that tells how readily two partners part at equilibrium.

Several values for one entry are separate records, joined by “and”; a condition that tells them apart may be missing. Equal values may be shown once.

Experiment [1] addresses T1, cynomolgus monkey C5 (cynomolgus monkey, UniProt A0A2K5U1T1 19-1676).
T1 construct: also called cC5; cynomolgus C5
The experiment is described as follows: mean affinity for cC5, Biacore. For orientation: In SPR one partner is held on a chip, and binding of the other changes the refractive index at the surface.

Experiment [2] has as its target T2, human complement component 5 (C5) (human, UniProt P01031 19-1676).
T2 construct: used as purified protein or in serum as the analyte; also called hC5; purified human C5
The experiment is described as follows: Biacore, mAb captured via anti-Fc, hC5, pH 5.5.
Method: (§1) The kinetics of binding of purified human C5 (hC5) or hC5 in human serum to immobilized mAbs (via capture with anti-Fc antibodies) were measured by Biacore® assays over a pH range from 7.4 to 5.5. Binding was tested at pH 7.4, 7.0, 6.5, 6.0, and 5.5.

The target in experiment [3] is T2, human complement component 5 (C5). The experiment is described as follows: Biacore; KD at pH 5.5 against KD at pH 7.4.
Method: as §1
For experiment [4] the target is unchanged. Briefly: Biacore, mAb captured via anti-Fc, hC5, pH 7.4.
Method: as §1
Experiment [5] has the same target. The experiment is described as follows: cell-based or functional assay.
For experiment [6], the target named is T3, human neonatal Fc receptor (FcRn) (human, UniProt P55899 24-297; P61769 21-119).
T3 construct: also called hFcRn; recombinant FcRn
T3 sequence (P55899 24-297 limits assumed, chain 1 of 2): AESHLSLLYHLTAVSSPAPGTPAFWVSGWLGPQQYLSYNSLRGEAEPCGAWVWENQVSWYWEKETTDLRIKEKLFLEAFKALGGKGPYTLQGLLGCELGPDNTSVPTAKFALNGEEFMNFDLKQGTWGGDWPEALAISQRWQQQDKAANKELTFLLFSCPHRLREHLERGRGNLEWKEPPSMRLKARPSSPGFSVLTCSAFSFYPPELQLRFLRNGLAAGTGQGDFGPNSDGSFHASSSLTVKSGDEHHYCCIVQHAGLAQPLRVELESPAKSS
T3 sequence (P61769 21-119 limits assumed, chain 2 of 2): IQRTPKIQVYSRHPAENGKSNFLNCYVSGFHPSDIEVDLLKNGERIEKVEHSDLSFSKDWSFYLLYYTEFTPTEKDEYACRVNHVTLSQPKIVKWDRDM
The experiment is described as follows: Biacore, immobilized recombinant hFcRn, pH 5.5; pH 5.5.
Method: (§2) Kinetics of binding to immobilized recombinant FcRn was determined for mAbs at pH 7.4 and pH 5.5 in Biacore® assays.

The target in another experiment is FcγRIIIA (UniProt P08637 17-208, limits assumed). The experiment is described as follows: binding affinity to Fcγ receptor, method not stated; range 1000-31.25 nM.
Sequence of FcγRIIIA (P08637 17-208 limits assumed): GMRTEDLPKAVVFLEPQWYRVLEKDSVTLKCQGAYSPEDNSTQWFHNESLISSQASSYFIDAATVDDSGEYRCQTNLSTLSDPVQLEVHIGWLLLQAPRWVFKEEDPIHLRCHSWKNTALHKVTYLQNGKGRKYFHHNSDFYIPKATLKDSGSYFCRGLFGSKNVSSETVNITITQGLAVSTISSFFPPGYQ
For experiment [7], the target named is T2, human complement component 5 (C5). Briefly: Biacore, pH 7.4, against Control 1.
Method: as §1
In experiment [8] the target is T3, human neonatal Fc receptor (FcRn). Briefly: Biacore, immobilized recombinant hFcRn, pH 6.0; pH 6.0.
Method: as §2
In a further experiment the target is T4, African Green monkey C5 (African Green monkey).
T4 construct: also called C5 in African Green monkey serum
Briefly: Biacore, antibody captured, African Green monkey serum as analyte, pH 7.4; estimated, C5 titer assumed.

The target of the next experiment is T5, baboon C5 (baboon).
T5 construct: also called C5 in baboon serum
The experiment is described as follows: Biacore, antibody captured, baboon serum as analyte, pH 7.4; estimated, C5 titer assumed.

Experiment [9] deals with T2, human complement component 5 (C5). The experiment is described as follows: Kd at pH 5.5 against Kd at pH 7.4.
Experiment [10] has the same target. The experiment is described as follows: C5 binding affinity at pH 5.5; method not named in Example 2.
For experiment [11] the target is unchanged. The experiment is described as follows: C5 binding affinity at pH 7.4; method not named in Example 2; pH 7.4; IgG2 Fc.
For experiment [12] the target is unchanged. Briefly: Biacore, antibody captured, purified C5, pH 7.4.
Experiment [13] addresses T3, human neonatal Fc receptor (FcRn). Briefly: Biacore, immobilized recombinant hFcRn, pH 5.5.
Method: as §2
In experiment [14] the target is T1, cynomolgus monkey C5. Briefly: KD for cC5 of Antibody B against that of Control 1.
For experiment [15], the target named is T3, human neonatal Fc receptor (FcRn). The experiment is described as follows: Biacore, immobilized recombinant hFcRn, pH 7.4; range 2000-15.6 nM.
Method: as §2
The target of experiment [16] is T2, human complement component 5 (C5). Briefly: Biacore, antibody captured, human serum as analyte, pH 7.4.
Method: (§3) Biacore® binding assays were performed with antibody captured on the chip and sera from 16 different mammalian species as the analyte that is flowed over the chip.
The next experiment concerns the target T6, CD-1 mouse C5 (CD-1 mouse, UniProt P06684 19-1680).
T6 construct: also called C5 in CD-1 mouse serum; CD1 mice
The experiment is described as follows: Biacore, antibody captured, CD-1 mouse serum as analyte, pH 7.4; estimated, C5 titer assumed.

Experiment [17] addresses T2, human complement component 5 (C5). Briefly: Biacore, mAb captured via anti-Fc, purified hC5, pH 5.5.
Method: (§4) Binding of hC5 to immobilized mAbs (via capture with anti-Fc antibodies) were measured by Biacore® assays at 7.4 and pH 5.5.
In experiment [18] the target is T1, cynomolgus monkey C5. The experiment is described as follows: Biacore, antibody captured, cynomolgus serum as analyte, pH 7.4.
Method: as §3
For a further experiment, the target named is FcγRI (UniProt P12314 16-288, limits assumed). The experiment is described as follows: binding affinity to Fcγ receptor, method not stated; range 62.5-0.48 nM.
Sequence of FcγRI (P12314 16-288 limits assumed): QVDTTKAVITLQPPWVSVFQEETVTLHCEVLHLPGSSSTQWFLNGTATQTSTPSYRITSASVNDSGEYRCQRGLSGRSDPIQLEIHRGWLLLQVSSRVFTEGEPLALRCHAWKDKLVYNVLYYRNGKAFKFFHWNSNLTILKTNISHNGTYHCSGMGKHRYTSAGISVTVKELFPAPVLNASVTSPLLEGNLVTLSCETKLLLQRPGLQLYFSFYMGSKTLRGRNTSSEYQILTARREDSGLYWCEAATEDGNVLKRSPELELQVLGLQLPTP
The target in experiment [19] is T1, cynomolgus monkey C5. The experiment is described as follows: Biacore, pH 7.4, cynomolgus against human (FIG. 8G).
Method: as §3
To validate the binding as specific to C5, pull-down experiments were performed on sera from cynomolgus monkeys. Size exclusion chromatography was used to purify the resulting cynomolgus C5, which was also used to reconfirm binding on biacore.
For experiment [20], the target named is T3, human neonatal Fc receptor (FcRn). Briefly: Biacore, immobilized recombinant hFcRn, pH 6.0.
Method: as §2
The target is the same in experiment [21]. The experiment is described as follows: Biacore, immobilized recombinant hFcRn, pH 7.4; range 50-0.39 nM; pH 7.4; concentration range 50-0.39 nM.
Method: as §2
The target in another experiment is T7, rhesus monkey C5 (rhesus monkey, UniProt F7GHV1 19-1676).
T7 construct: also called C5 in rhesus serum
T7 sequence (F7GHV1 entry or part of it): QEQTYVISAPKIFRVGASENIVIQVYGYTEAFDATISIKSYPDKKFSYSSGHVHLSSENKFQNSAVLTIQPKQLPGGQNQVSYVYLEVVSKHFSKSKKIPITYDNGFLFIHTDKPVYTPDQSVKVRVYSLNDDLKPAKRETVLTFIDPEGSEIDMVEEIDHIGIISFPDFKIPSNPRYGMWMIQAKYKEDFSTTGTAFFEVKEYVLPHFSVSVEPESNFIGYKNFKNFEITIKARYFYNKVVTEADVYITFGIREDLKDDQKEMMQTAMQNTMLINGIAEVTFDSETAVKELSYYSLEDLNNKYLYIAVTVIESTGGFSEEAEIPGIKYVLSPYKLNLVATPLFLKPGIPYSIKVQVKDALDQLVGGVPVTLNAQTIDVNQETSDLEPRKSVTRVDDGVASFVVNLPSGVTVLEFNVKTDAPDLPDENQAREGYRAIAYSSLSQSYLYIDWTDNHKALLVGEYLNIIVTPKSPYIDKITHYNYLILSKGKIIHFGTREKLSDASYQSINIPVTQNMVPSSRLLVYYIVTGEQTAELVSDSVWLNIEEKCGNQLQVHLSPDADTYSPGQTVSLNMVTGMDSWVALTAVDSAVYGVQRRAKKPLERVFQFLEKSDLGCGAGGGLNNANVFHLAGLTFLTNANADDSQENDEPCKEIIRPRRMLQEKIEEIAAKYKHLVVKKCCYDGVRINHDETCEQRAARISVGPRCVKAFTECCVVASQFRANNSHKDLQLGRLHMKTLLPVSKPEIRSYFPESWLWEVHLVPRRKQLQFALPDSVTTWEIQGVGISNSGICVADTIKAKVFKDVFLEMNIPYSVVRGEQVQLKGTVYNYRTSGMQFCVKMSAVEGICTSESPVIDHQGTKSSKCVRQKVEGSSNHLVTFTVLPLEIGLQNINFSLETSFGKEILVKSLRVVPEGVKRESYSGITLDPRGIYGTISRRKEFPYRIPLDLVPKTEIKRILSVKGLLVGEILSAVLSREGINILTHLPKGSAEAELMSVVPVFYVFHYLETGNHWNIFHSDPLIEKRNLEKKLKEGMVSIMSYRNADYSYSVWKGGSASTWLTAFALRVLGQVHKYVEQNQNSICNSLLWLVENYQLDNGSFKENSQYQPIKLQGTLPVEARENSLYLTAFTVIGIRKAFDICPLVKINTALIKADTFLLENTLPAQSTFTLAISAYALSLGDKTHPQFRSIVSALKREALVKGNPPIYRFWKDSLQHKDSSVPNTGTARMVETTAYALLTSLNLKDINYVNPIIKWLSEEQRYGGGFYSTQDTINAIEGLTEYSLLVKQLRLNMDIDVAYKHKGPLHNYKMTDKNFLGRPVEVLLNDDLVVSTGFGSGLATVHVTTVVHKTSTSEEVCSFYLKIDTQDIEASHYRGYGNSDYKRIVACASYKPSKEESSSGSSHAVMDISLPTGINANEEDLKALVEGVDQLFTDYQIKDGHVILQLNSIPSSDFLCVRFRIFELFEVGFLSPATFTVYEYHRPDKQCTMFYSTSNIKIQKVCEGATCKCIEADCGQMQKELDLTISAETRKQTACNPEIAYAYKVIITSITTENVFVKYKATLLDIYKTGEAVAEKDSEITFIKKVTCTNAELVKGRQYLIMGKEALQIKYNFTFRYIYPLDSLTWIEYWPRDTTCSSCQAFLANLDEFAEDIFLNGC
Briefly: Biacore, antibody captured, rhesus serum as analyte, pH 7.4; estimated, C5 titer assumed.

Experiment [22] deals with T2, human complement component 5 (C5). The experiment is described as follows: Biacore, mAb captured via anti-Fc, purified hC5, pH 7.4.
Method: as §4
The target is the same in experiment [23]. Briefly: C5 binding affinity at pH 7.4; method not named in Example 2.

T6 sequence (P06684 19-1680 limits assumed): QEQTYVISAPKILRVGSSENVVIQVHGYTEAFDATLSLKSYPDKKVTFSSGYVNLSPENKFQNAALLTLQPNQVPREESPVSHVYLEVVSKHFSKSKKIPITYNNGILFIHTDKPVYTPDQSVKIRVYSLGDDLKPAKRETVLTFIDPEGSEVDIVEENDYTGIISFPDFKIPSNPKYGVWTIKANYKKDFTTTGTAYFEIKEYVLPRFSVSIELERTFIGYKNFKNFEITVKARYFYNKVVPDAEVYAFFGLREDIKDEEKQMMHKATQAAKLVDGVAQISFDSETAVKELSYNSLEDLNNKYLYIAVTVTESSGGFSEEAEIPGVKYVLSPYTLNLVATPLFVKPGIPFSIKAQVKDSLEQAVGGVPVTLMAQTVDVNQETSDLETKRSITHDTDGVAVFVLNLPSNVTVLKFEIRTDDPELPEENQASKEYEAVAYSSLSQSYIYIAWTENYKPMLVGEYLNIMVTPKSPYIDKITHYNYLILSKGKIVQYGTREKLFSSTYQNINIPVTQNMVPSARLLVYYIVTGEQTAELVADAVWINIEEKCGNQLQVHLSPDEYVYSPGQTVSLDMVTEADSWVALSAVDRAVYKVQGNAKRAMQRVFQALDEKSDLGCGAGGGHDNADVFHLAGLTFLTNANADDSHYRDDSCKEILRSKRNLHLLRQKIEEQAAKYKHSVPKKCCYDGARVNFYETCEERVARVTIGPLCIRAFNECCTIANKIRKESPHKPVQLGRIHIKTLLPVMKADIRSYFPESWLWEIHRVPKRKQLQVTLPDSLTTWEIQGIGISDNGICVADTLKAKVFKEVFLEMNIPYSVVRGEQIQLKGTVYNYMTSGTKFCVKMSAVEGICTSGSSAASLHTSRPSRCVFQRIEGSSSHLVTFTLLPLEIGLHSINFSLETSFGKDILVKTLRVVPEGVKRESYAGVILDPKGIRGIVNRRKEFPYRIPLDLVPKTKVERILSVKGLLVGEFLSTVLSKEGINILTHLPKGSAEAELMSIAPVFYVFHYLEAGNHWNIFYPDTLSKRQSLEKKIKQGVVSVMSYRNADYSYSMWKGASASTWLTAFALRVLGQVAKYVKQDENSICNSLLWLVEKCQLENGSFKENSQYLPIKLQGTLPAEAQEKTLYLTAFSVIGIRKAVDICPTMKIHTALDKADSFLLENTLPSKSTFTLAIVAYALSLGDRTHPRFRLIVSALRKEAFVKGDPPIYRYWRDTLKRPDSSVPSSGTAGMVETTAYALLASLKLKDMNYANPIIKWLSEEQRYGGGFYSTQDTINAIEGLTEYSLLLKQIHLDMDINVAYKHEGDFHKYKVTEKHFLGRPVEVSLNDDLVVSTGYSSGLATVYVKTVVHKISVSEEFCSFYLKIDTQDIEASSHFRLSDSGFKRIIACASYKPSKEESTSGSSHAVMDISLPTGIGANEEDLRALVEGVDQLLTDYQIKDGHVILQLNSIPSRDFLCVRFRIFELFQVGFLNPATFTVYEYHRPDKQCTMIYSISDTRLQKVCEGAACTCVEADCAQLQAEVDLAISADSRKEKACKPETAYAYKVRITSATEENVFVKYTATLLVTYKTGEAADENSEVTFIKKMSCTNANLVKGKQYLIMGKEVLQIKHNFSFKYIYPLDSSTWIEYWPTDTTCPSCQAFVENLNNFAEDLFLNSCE
Method for African Green monkey C5: as §3
Method for CD-1 mouse C5: as §3
Method for baboon C5: as §3
Method for rhesus monkey C5: as §3

B1: Antibody A (antibody, human IgG1, kappa, L234A L235A)
heavy: not shown
light: DIQMTQSPSSLSASVGDRVTITCGAHENIYHALNWYQQKPGKAPKLLIYGATNLAHGVPSRFSGSGSGTDFTLTISSLQPEDFATYYCQNVLNTPLTFGQGTKVEIKRTVAAPSVFIFPPSDEQLKSGTASVVCLLNNFYPREAKVQWKVDNALQSGNSQESVTEQDSKDSTYSLSSTLTLSKADYEKHKVYACEVTHQGLSSPVTKSFNRGEC
notes: IgG1 with L234A, L235A
B1: the Kd was determined as 1.65 nM in the experiment with cynomolgus monkey C5 [1]; 113 nM in experiment [2]; 0.34 nM in experiment [4]; 5.9 nM in [6]; 7420 nM with FcγRIIIA; 11.3 nM in experiment [8]. For the same molecule, the KD fold-change in [3] was 332 fold. Besides, the “IC50 for inhibition of antibody-sensitized lysis of chicken RBC by human serum” value in [5] was determined as 3 µg/mL. Besides, the “fold reduction of the C5 binding affinity at pH 7.4 as compared to Control 1” value (from here on “fold reduction”) in experiment [7] was < 3 fold.

B2: Control 1 (antibody, human IgG2, kappa)
heavy: QVQLVQSGAEVKKPGASVKVSCKASGYIFSNYWIQWVRQAPGQGLEWMGEILPGSGSTEYTENFKDRVTMTRDTSTSTVYMELSSLRSEDTAVYYCARYFFGSSPNWYFDVWGQGTLVTVSSASTKGPSVFPLAPCSRSTSESTAALGCLVKDYFPEPVTVSWNSGALTSGVHTFPAVLQSSGLYSLSSVVTVPSSNFGTQTYTCNVDHKPSNTKVDKTVERKCCVECPPCPAPPVAGPSVFLFPPKPKDTLMISRTPEVTCVVVDVSQEDPEVQFNWYVDGVEVHNAKTKPREEQFNSTYRVVSVLTVLHQDWLNGKEYKCKVSNKGLPSSIEKTISKAKGQPREPQVYTLPPSQEEMTKNQVSLTCLVKGFYPSDIAVEWESNGQPENNYKTTPPVLDSDGSFFLYSRLTVDKSRWQEGNVFSCSVMHEALHNHYTQKSLSLSLGK
light: DIQMTQSPSSLSASVGDRVTITCGASENIYGALNWYQQKPGKAPKLLIYGATNLADGVPSRFSGSGSGTDFTLTISSLQPEDFATYYCQNVLNTPLTFGQGTKVEIKRTVAAPSVFIFPPSDEQLKSGTASVVCLLNNFYPREAKVQWKVDNALQSGNSQESVTEQDSKDSTYSLSSTLTLSKADYEKHKVYACEVTHQGLSSPVTKSFNRGEC
notes: IgG2 and IgG4 (IgG 2-4); produced in CHO cells; also called control antibody
Consider B2, for which the dissociation constant (Kd) in the experiment with African Green monkey C5 was 27.5 nM; in experiment [6], 125 nM; with baboon C5, 16.2 nM; in experiment [8], 125 nM.

B3: Antibody D (antibody, human IgG2, kappa)
heavy: QVQLVQSGAEVKKPGASVKVSCKASGYIFSNYWIQWVRQAPGQGLEWMGEILPGSGSTEYTENFKDRVTMTRDTSTSTVYMELSSLRSEDTAVYYCARYHFGSSPNWYFDVWGQGTLVTVSSASTKGPSVFPLAPCSRSTSESTAALGCLVKDYFPEPVTVSWNSGALTSGVHTFPAVLQSSGLYSLSSVVTVPSSNFGTQTYTCNVDHKPSNTKVDKTVERKCCVECPPCPAPPVAGPSVFLFPPKPKDTLMISRTPEVTCVVVDVSHEDPEVQFNWYVDGVEVHNAKTKPREEQFNSTFRVVSVLTVVHQDWLNGKEYKCKVSNKGLPAPIEKTISKTKGQPREPQVYTLPPSREEMTKNQVSLTCLVKGFYPSDIAVEWESNGQPENNYKTTPPMLDSDGSFFLYSKLTVDKSRWQQGNVFSCSVMHEALHNHYTQKSLSLSPGK
light: DIQMTQSPSSLSASVGDRVTITCGASENIYGALNWYQQKPGKAPKLLIYGATNLADGVPSRFSGSGSGTDFTLTISSLQPEDFATYYCQNVLHTPLTFGQGTKVEIKRTVAAPSVFIFPPSDEQLKSGTASVVCLLNNFYPREAKVQWKVDNALQSGNSQESVTEQDSKDSTYSLSSTLTLSKADYEKHKVYACEVTHQGLSSPVTKSFNRGEC
notes: IgG2 Fc constant region; also called F100H heavy / N93H light on IgG2 backbone
Consider B3, for which the “Fold change in Kd (pH 5.5 vs. pH 7.4)” value in experiment [9] is 13.4 fold. Further, the Kd in experiment [10] was 13.9 nM; in experiment [11], 1.04 nM.

B4: Antibody B (antibody, human IgG1, kappa, L234A L235A)
heavy: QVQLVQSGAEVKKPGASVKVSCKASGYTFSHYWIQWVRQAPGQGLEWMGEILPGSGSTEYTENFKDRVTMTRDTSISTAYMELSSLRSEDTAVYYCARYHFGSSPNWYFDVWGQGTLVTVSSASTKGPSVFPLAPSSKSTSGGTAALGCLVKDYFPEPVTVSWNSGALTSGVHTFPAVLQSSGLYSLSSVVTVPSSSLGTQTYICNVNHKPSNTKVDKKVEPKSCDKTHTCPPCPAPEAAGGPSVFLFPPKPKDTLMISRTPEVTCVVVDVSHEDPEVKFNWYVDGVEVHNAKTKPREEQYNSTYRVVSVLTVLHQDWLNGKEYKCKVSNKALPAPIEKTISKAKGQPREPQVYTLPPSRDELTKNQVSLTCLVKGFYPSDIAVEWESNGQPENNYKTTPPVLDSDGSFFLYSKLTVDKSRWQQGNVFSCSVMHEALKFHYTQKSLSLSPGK
light: DIQMTQSPSSLSASVGDRVTITCGAHENIYHALNWYQQKPGKAPKLLIYGATNLAHGVPSRFSGSGSGTDFTLTISSLQPEDFATYYCQNVLNTPLTFGQGTKVEIKRTVAAPSVFIFPPSDEQLKSGTASVVCLLNNFYPREAKVQWKVDNALQSGNSQESVTEQDSKDSTYSLSSTLTLSKADYEKHKVYACEVTHQGLSSPVTKSFNRGEC
notes: IgG1 with L234A, L235A, H433K, N434F
Take B4: the equilibrium dissociation constant (Kd) in experiment [2] is 145 nM; in experiment [12], 0.34 nM; in [4] it was 0.35 nM; in the experiment with African Green monkey C5 it was 3.2 nM; in experiment [13] it was 0.13 nM; in [15], 191 nM. The dissociation constant Kd in experiment [16] was 0.33 nM; in the experiment with CD-1 mouse C5, 5.3 nM; with cynomolgus monkey C5 [18], 1.9 nM; with FcγRI it was 94 nM and 75 nM and 62 nM; with FcγRIIIA, 9620 nM; in experiment [20], 0.24 nM. The values for the dissociation constant (Kd) (in experiment [21]; in the experiment with rhesus monkey C5; with baboon C5) were 108 nM, 3.19 nM and 2.6 nM, respectively. Moreover, the KD fold-change in [3] came out at 414 fold. Further, the “fold improvement in affinity against Control 1” value with cynomolgus monkey C5 [14] was 8 fold. In addition, the “fold lower affinity than BNJ441 at pH 5.5” value in experiment [17] was determined as 10 fold. Also, in experiment [5], the “IC50 for inhibition of antibody-sensitized lysis of chicken RBC by human serum” value came to 3 µg/mL. In addition, the “fold lower affinity than for human C5” value with cynomolgus monkey C5 [19] came out at 5.7 fold. Besides, the “fold reduction” value in experiment [7] was < 3 fold. Further, the “fold greater affinity than BNJ441 at pH 7.4” value in [22] is 3 fold.

B5: Antibody C (antibody, human IgG1, kappa, L234A L235A, V domains shown)
VH: QVQLVQSGAEVKKPGASVKVSCKASGYTFSHYWIQWVRQAPGQGLEWMGEILPGSGSTEYTENFKDRVTMTRDTSISTAYMELSSLRSEDTAVYYCARYHFGSSPNWYFDVWGQGTLVTVSS
VL: DIQMTQSPSSLSASVGDRVTITCGAHENIYGALNWYQQKPGKAPKLLIYGATNLAHGVPSRFSGSGSGTDFTLTISSLQPEDFATYYCQNVLNTPLTFGQGTKVEIKR
notes: as for B4
With B5, the figures for the Kd in experiment [2] and in experiment [4] were 37 nM and 0.26 nM, respectively. Also, the KD fold-change in [3] stood at 142 fold. Moreover, the “fold reduction” value in experiment [7] is < 3 fold.

B6: Antibody E (antibody, human IgG1, kappa, L234A L235A)
heavy: not shown
light: DIQMTQSPSSLSASVGDRVTITCGASENIYGALNWYQQKPGKAPKLLIYGATNLADGVPSRFSGSGSGTDFTLTISSLQPEDFATYYCQNVLHTPLTFGQGTKVEIKRTVAAPSVFIFPPSDEQLKSGTASVVCLLNNFYPREAKVQWKVDNALQSGNSQESVTEQDSKDSTYSLSSTLTLSKADYEKHKVYACEVTHQGLSSPVTKSFNRGEC
notes: IgG1 Fc constant region; also called F100H heavy / N93H light on IgG1 backbone
As to B6, the “Fold change in Kd (pH 5.5 vs. pH 7.4)” value in experiment [9] worked out at 48.5 fold. Besides, the Kd in [10] stood at 34.9 nM; in [23], 0.72 nM.
